Test results published in patent US20240132578A1.

Key:
Assay in all cases: cell-based or functional assay
[1] = target: HIV-1 Env of isolate 92RW009 (clade A pseudovirus) (HIV-1)
[2] = target: HIV-1 Env of isolate 93IN905 (Clade C) (HIV-1)
[3] = target: HIV-1 Env of isolate MGRM-AG-011 (pseudovirus) (HIV-1)
[4] = target: HIV-1 Env of isolate MGRM-G-024 (subtype G) (HIV-1)
[5] = target: HIV-1 Env of isolate SC422661.8 (Acute), clade B (HIV-1)
[6] = target: HIV-1 Env of isolate THR0.18 (Acute), clade B (HIV-1)
[7] = target: HIV-1 Env of pseudovirus MGRM-G-017 (HIV-1)
HIV-1 JRCSF Env (HIV-1) = HIV-1 JRCSF Env (HIV-1) (UniProt P20871)
[8] = target: HIV-1 MGRM-AE-001 Env (pseudovirus) (HIV-1)
[9] = target: HIV-1 MGRM-AE-004 Env (pseudovirus) (HIV-1)
[10] = target: HIV-1 MGRM-AG-013 Env (pseudovirus) (HIV-1)
[11] = target: HIV-1 MGRM-C-027 Env (HIV-1)
[12] = target: HIV-1 envelope glycoprotein (Env) of isolate 93IN905 (HIV-1)
[13] = target: HIV-1 envelope glycoprotein (Env) of isolate MGRM-C-023 (HIV-1)
[14] = target: HIV-1 envelope glycoprotein (Env) of isolate MGRM-C-024 (HIV-1)
[15] = target: HIV-1 Env of isolate 92RW008 (pseudovirus) (HIV-1)
[16] = target: HIV-1 Env of isolate JRFL (HIV-1)
[17] = target: HIV-1 Env of isolate MGRM-A-005 (pseudovirus) (HIV-1)
[18] = target: HIV-1 Env of isolate MGRM-A-011 (subtype A) (HIV-1)
[19] = target: HIV-1 Env of isolate MGRM-A-013 (subtype A) (HIV-1)
[20] = target: HIV-1 Env of isolate MGRM-AE-008 (subtype AE) (HIV-1)
[21] = target: HIV-1 Env of isolate MGRM-AG-009 (subtype AG) (HIV-1)
[22] = target: HIV-1 Env of isolate MGRM-F1-022 (HIV-1)
[23] = target: HIV-1 Env of pseudovirus isolate MGRM-C-012 (clade C) (HIV-1)
[24] = target: HIV-1 JR-CSF Env K421A (HIV-1 (isolate JR-CSF)) (UniProt P20871)

Substance | IC50 (µg/mL), pseudovirus neutralization [15] | IC50 (µg/mL), pseudovirus neutralization [16] | IC50 (µg/mL), pseudovirus neutralization [17] | IC50, pseudovirus neutralization [18] | IC50, pseudovirus neutralization [19] | IC50, pseudovirus neutralization [20] | IC50, pseudovirus neutralization [21] | IC50 (µg/mL), pseudovirus neutralization [22] | IC50, pseudovirus neutralization [23] | Fold IC50 increase relative to wild-type (pseudovirus neutralization) [24] | other results
1496_C09 (PG9) (TCN-109) (antibody) | – | – | – | – | – | – | – | – | – | – | IC50 (µg/ml), pseudovirus neutralization [1]: 0.03 µg/mL; IC90 (neutralization of pseudovirus) [2]: 1.89 µg/mL; IC50 (µg/mL), pseudovirus neutralization [3]: 0.007 µg/mL; IC50 (µg/mL), pseudovirus neutralization [4]: 0.163 µg/mL; IC50 (µg/ml), pseudovirus neutralization [5]: 0.79 µg/mL; IC50 (µg/ml), pseudovirus neutralization [6]: 12.4 µg/mL; IC50 (µg/ml), pseudovirus neutralization [7]: 0.03 µg/mL; IC50, pseudovirus neutralization (HIV-1 JRCSF Env (HIV-1)): 0.0048 µg/mL; IC50 (µg/ml), pseudovirus neutralization [8]: 2.97 µg/mL; IC50 (µg/ml), pseudovirus neutralization [9]: 0.01 µg/mL; IC50 (µg/ml), pseudovirus neutralization [10]: 0.23 µg/mL; IC50, pseudovirus neutralization [11]: 2.45 µg/mL; IC50 (µg/ml), pseudovirus neutralization [12]: 0.03 µg/mL; IC50 (µg/ml), pseudovirus neutralization [13]: 0.51 µg/mL; IC50 (µg/ml), pseudovirus neutralization [14]: 0.22 µg/mL
5114_A19 (PGT-128) (antibody) | 0.003 µg/mL | 0.007 µg/mL | > 50 µg/mL | > 50 µg/mL | 0.008 µg/mL | > 50 µg/mL | 0.021 µg/mL | 4.54 µg/mL | 0.058 µg/mL | 2 fold | –
5136_H01 (PGT-131) (antibody) | 1.01 µg/mL | 0.454 µg/mL | > 50 µg/mL | > 50 µg/mL | > 50 µg/mL | > 50 µg/mL | > 50 µg/mL | > 50 µg/mL | > 50 µg/mL | 11 fold | –
5147_N06 (PGT-130) (antibody) | 0.039 µg/mL | 0.046 µg/mL | > 50 µg/mL | > 50 µg/mL | > 50 µg/mL | > 50 µg/mL | 9.46 µg/mL | > 50 µg/mL | > 50 µg/mL | 2.9 fold | IC50, pseudovirus neutralization (HIV-1 JRCSF Env (HIV-1)): 0.0089 µg/mL; IC50, pseudovirus neutralization [11]: 0.0052 µg/mL
5329_C19 (PGT-136) (antibody) | > 50 µg/mL | > 50 µg/mL | > 50 µg/mL | > 50 µg/mL | > 50 µg/mL | > 50 µg/mL | > 50 µg/mL | 2.42 µg/mL | > 50 µg/mL | – | –
5343_B08 (PGT-135) (antibody) | 1.42 µg/mL | > 50 µg/mL | > 50 µg/mL | > 50 µg/mL | > 50 µg/mL | > 50 µg/mL | > 50 µg/mL | 0.964 µg/mL | 0.017 µg/mL | 0.3 fold | –
5345_I01 (PGT-137) (antibody) | 0.148 µg/mL | > 50 µg/mL | > 50 µg/mL | > 50 µg/mL | 49.2 µg/mL | > 50 µg/mL | > 50 µg/mL | 6.23 µg/mL | 0.102 µg/mL | – | –
PGV04 (antibody) | – | – | – | – | – | – | – | 0.072 µg/mL | – | – | IC50 (µg/mL), pseudovirus neutralization [3]: 0.071 µg/mL; IC50 (µg/mL), pseudovirus neutralization [4]: 0.033 µg/mL
